Source: PMC7139925, “Tuning the Polymorphism of the Anti-VEGF G-rich V7t1 Aptamer by Covalent Dimeric Constructs”

Biological target: VEGF165 (UniProt P15692-4 27-191)
Experiment: EMSA; annealed; HEPES/Na+; 1:1.3; almost fully bound; 25 mM HEPES, 150 mM NaCl, pH 7.4; 30 pmol oligo + 40 pmol protein in 9 uL, 30 min at 4 C; 7% native PAGE in TAE 1X pH 7.8 at r.t.
Conditions: protein: recombinant; chain copies: 2; G4; 2 copies of strand covalently linked 3'-3'

Chain of VEGF165 (P15692 other isoform, or with tags, fused parts or gaps): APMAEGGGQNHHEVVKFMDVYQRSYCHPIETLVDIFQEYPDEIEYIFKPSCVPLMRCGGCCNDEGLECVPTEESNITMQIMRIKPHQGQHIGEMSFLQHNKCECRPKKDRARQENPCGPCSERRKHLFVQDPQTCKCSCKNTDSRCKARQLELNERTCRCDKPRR

B1: bisV7t1TEG2D (structured_DNA)
DNA: TGTGGGGGTGGACGGGCCGGGTAGA
modifications: two V7t1 copies joined 3' to 3' by TEG/symmetric doubler linker (C25H53N2O24P5), inverted polarity
- binding result: binds
